Results taken from the nanobody polyreactivity screen of Harvey et al. (2022).

Assay: yeast display, Sf9 membrane polyspecificity reagent, FACS + sequencing; frameworks hold sequencing errors
Procedure, shortened: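 Galactose induction of a Saccharomyces cerevisiae BJ5465 synthetic nanobody display library ran 36–48 hours. The cells were then stained for 1 hour at 4 °C with 10% biotinylated, detergent-solubilized Sf9 membrane reagent, pulled down on streptavidin microbeads and FACS-sorted into low and high (top ~1%) gates on expression and reagent-binding fluorescence. Labels for polyreactivity follow the gate of origin.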

Sequence | polyreactivity (PSR sort gate)
QVQLVDSGGGLVQAGGSLRLSCAASGFTFFRYAMGWYRQAPGKERELVAAITSGGGRTYYADSVKGRFTISRDNAKNTVYLQMNSLNPEDTAVYYCAARVYFSFITPIKYNYWGQGTQVTVSS | high polyreactivity
QVQHVESGGGLVQAGGSLRLSCAASGSTFWRYAMGWYRQAPGKERELVAAISTSGGSTRYADSVKGRFTISRDNAKNTVYFQMKSLKPEDTEVYYCADRSVSSTSYGYWGQGTQVTVSS | high polyreactivity
QVQLVESGGGLVQAGGSLRLSCAASGRTFLYYAMGWYRQAPGKERELVAAIDWSDDSTYYADSVKGRFTISRDNAKNTVYLQMNSLKPEDTAVYYCATDGLYLSWQYSWEELYYWGQGTQVTVSS | high polyreactivity
QVQLVESGGGLVQAGGSLRLSCAASGFIFSDNAMGWYRQAPGKERELVSAITDDGDTTYYADSVKGRFTISRDNAKNTVYLQMNSLKPEDTAVYYCATEIEDDESSGPYYYVGYGYWGQGTQVTVSS | high polyreactivity
QVQLEDSGGGLVQAGGSLRLSCAASGIIFPDYAMGWYRQAPGKQRELVADISFSAGSTYYADSVKGRFTISRDNAKNTVYLQMNSLKPEDTAVYYCNARPFLTVLYLFYGNNYDYWGQGTQVTVSS | low polyreactivity
QVQLVESGAGLVQAGGSLRLSCAASGRTFSRNAMGWYRQPPGKERELVATISRGGGITFYADSVKGRYTISRDNAKNTVYLQMNSLKPEDTAVYYCNADVRYVGLRRIVDYWGQGTQVTVSS | high polyreactivity
QVQLVESGGGLVQAGGSLRLSCASSGSTFDYYVMGWYRQEPGIVRELVASISSGGSTYYADSVKGRFTISRDNAKNTVYLQMNSLKPEDTAVYYCAARYYGRVGGYSIGYNYWGQGTQVTVSS | high polyreactivity
QVQLVESGGGLVQAGGSLRLSCAASGSTFWKYVMGWYRQAPGKERELVAAIDTGASTNYADSVKGRFTISRDNAKYTVYLQMNSLKPEDTAVYFCNAELWYGPDELTGDYWGQGTQVTVSS | low polyreactivity
QVQLVESGGGLVQAGGSLRLSCAAYGFIFSYYAMGWFRQAPGKEREFVATITWRGGSTYYADSVKGRFTISRDNAKNTVYLQMNSLKPEDTAVYYCAARKRTPGYGYWGQGTQVTVSS | high polyreactivity
QVQLVDSGGGLVQAGGSLRLSCSASVRTFRGTAMGWYRHAPGKEREMVAPITYRTGSKYYPDSVKGRFTNSRDNAKNTVYLLLNSLKPEDSAVYYCAAVSGRSYDKDYFWGQGTQVTVSS | high polyreactivity
QVQLVESGGGLVQAGGSLRLSCAASGRIFYKYAMGWYRQAPGKERELVAAITTSGGSTYYADSVKGRFTISRDNAKNTVYLQMNSLKPEDTAVYYCARDLNGRFLTTGRGMDYWGQGTQVTVSS | high polyreactivity
QVQLVESGGGLVQAGGSLRLSCAASGLIFNIYAMGWYRQAPGKARELVATIRYSGGSTNYADSVKGRFTISRDNAKNTVYLQMNSLKPEVTAVYYCNAGYYPTGYDYWGQGTQVTVSW | low polyreactivity
QVQLVESGGGLVQAGGSLRLSCAASGSTFNYYAMGWYRQAPGKERELVAAITSSGTSTFYADSVKGRITISRDNAKNTVYLQMNSLKPEDTAVYYCAVDLYWSYFNGALGYRYYYWGQGTQVTVSS | high polyreactivity
QVQLVESGGGLVQAGGSLRLSCAASGFTFSYYAMGWYRQAPGKERELVASISRSGNTYYADSVKGRFTISRDNAKNTVYLQMNSLKPEDTAVYYCAADQVYASTHVWGYDYWGQGTQVTVSS | high polyreactivity
QVQLVESVGGLLQAGGSLRVSCAASGFTFYRYAMGWYRQAPGKERELVAAITRGGSTNYADSVKRRFTISRDNAKKTVYLQMNSLKPEDTAVYYCAVVSQRTPLRGDYWGQGTQVTVSS | high polyreactivity
QEQLQESGSGLVQAGGSLRLSCAASGNIFQDWVMAWYRQAPGKERELVAAISPGAITYYADSVKGRFTISRDNAKNTVYLQTNSLKPEDTAVYYCAAYYIVEYLHGYWGQGTRVTVSS | low polyreactivity

Sequence | polyreactivity (PSR sort gate)
QVHLVESGGALVQAGGSLRLSCAASVIVFKRYAMGWYRQAPGKEREFVATISYTGGRTYYADSVKGRFTISRDNAKNTVYFQMNSLKPEDTAGYYCATLYRSSKHQPLDYWGQGTQVTVSS | high polyreactivity
QVQLVESGGRLVQAGGSLRLSCAASGRTFRPYAMGWYRQAPGKERELVAAISSRGSSTYYADSVKGRFTISRDNAKNTVYLQMNSLKPEDTAVYYCAARSYWGGLRYDYWGQGTQVTVSS | high polyreactivity
QVQLVESGGGLVQAGGSLRLSCAASGRTFTVYAMGWYRQAPGKEREFVAAITERGGSTYYADSVKGRFTISRDNAKNTVYLQMNSLKPEDTAVYYCAAVYYWRPGWYVRFDYWGQGTQVTVSS | low polyreactivity
QVQLVESAVGLVQAGGSLRLSSAASGFTFLNYAMGSYRQAPGKVRELVAAITWSGGNTYYADSVMGRFTISRDNAKNTVYLQMNSLKPEDTAVYYCAADYRARGKFYWGQGTQVTVSS | high polyreactivity
QVQLVESGGGLVQAGGRLRLICDASGRIFYRYAIGWYRQAPGKERELVAVITSSGGRTYYADSVKGRFTISRDTAKNTVYLPMNSLKPEDTAVYYCTAYVRRIVRSYYWGQGTQVTVSS | high polyreactivity
QVQLVESGGGLVQAGGSLRLSCAASGFTFWVYAMGWYRQAPGKERELVADISSGGSTNYADSVKGRFTISRDNAKNTVYLQMNSLKPEDTAVYYCATYRARWTWYTRYDYWGQGTQVTVSS | high polyreactivity
QVQLVESGGGLVQAGGSLSLSCAASGSLFRPNAMGWYRQAPGKERELVAAITWSGDSTYYADSVKGRFTISRDNAKNTVYLQMNSLKPEATAVYYCAADFTYQGSSANDYWGQGTQVTVSS | low polyreactivity
QVQLQESGGVQAGGSLRQSCAASGYISRSDVMGWYRQAPGKERELVATINNATITYYADSVKGRFTISRDNAKNTVYLQMNSLKPEDTAVHYFAVVQSDTDSLYYWGQGTQVTVSS | low polyreactivity
QVQLVESGGGLVQAGGSLRLSCAASGSTFVGYTMGWYRQAPGKERELVASITSDGSTNYADSVKGRFTISRDNAKNTVYLQMNSLKPEDTAVYYCNADIRRHGGYAHEYWGQGTQVTVSS | low polyreactivity
QVQLVESGGGLVQAGGSLRLSCDASGRILKYNAMGWYRQAPGKERELVAAISGSGGRTYYADSVKGRFTISRDNAKNTVYLQMNSLKPEDTAVYYCAASNASPGGFNYWGQGTQVTVSS | high polyreactivity
QVHLVESGGGLVQAGGSLRLSCAASGLTFYGNAMGCYRQAPGKERELVAAISSSGGTTYYADSVKGRFTISRDNAKNTVYLQMNSLKPEDTAVYYCAARPSGGFESTRTRDYWGQGTQVTVSS | low polyreactivity
QVQLVESGGGLVQAGGSLRLSCAASGRIFAQYAMGWYRQAPGKERELVAAISSGGNTYYADSVKGRFTISRDNAKNTVYLQMNSLKPEDTAVYYCAASSRRYLWGFDYWGQGTQVTVSS | low polyreactivity
QVQLVESGGGLVQAGGSLRLSCAASGSTFWANAMGWYRQAPGKERELVAAITTSGASTYYADSVKGRFTISRDNAKNTVYLQMNSLKPEDTAVYYCAADYDSYYWYNYWGQGTQVTVSS | low polyreactivity
QVQLVESGGGLVQAGGSLRLICAASGITFYVYTMGWYRQAPGKERELVAAINGSGGSTNYADSVKGRFTISRDNAKNTVYLQMNSLKPEDTAVYYCAADWSLRLYDYWGQGTQVTVSS | low polyreactivity
QVQLVESGGGVVQAGGSLRLSCAASGITFQYYDMGWFRPAPGKERELVAAISWSTDMTYADSVKGRFTISRDNAKNTDYLQMNSLKPEDTAVYYCAASTYEYTSYDYWGQGTQVTVSS | low polyreactivity
